The experiment concerns the target fibrinogen complex (FC) component of TISSEEL VH S/D. The experiment is described as follows: SPR; FC coupled to sensor chip, PDGF-AB as analyte in PBS pH 7.4; KD = Koff/Kon by two methods. For orientation: In SPR one partner is held on a chip, and binding of the other changes the refractive index at the surface.

What is called Kd is the free concentration of one partner at which half of the binding sites on the other are occupied at equilibrium, for simple one-to-one binding. Read a high Kd as lower affinity.

“recombinant human PDGF-AB (from UniProt P04085 87-211; P01127 82-190) (ligand)” yielded a Kd of 342 nM.

These data come from patent publication US20090075881A1.
